± gives the uncertainty stated by the source.
Assay: self-splicing fitness, log relative to wild type (ln ratio); higher = more splicing; Tetrahymena group I intron in knt gene, E. coli kanamycin selection, DiMSum; sequences stand for … in CUCUCU…GGAGGGAAAAGUUAUCAGGCAUGCACCUGGUAGCUAGUCUUUAAACCAAUAGAUUGCAUCGGUUUAAAAGGCAAGACCGUCAAAUUGCGGGAAAGGGGUCAACAGCCGUUCAGUACCAAGUCUCAGGGGAAACUUUGAGAUGGCCUUGCAAAGGGUAUGGUAAUAAGCUGACGGACAUGGUCCUAACCACGCAGCCAAGUCCUAAGUCAACAGAUCUUCUGUUGAUAUGGAUGCAGUUCACAGACUAAAUGUCGGUCGGGGAAGAUGUAUUCUUCUCAUAAGAUAUAGUCGGACCUCUCCUUAAUGGGAGCUAGCGGAUGAAGUGAUGCAACACUGGAGCCGCUGGGAACUAAUUUGUAUGCGAAAGUAUAUUGAUUAGUUUUGGAGUACUCGUGGUCG
In short: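 DiMSum derived fitness as the error-weighted combination of fold changes across replicates, kanamycin versus no kanamycin, normalised to wild type. E. coli BL21(DE3) held the library, which randomised all eight P1ex-region intron nucleotides within the knt kanamycin-resistance gene on pET-22b(+). Six replicate transformations grew overnight at 37°C or 30°C on LB agar with or without 25 μg/mL kanamycin, also containing 100 μg/mL carbenicillin, 50 μM IPTG and 0.2% rhamnose, and pooled colonies were amplicon-sequenced on an Illumina HiSeq 2500.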

Row | Sequence | self-splicing fitness (ln) (30 °C) | self-splicing fitness (ln) (37 °C)
1 | UUUAAGCAAUAUUACGUAGU | -2.62 ± 0.13 | -2.13 ± 0.18
2 | UUUAAGCAAUAUUACGUCCU | -1.82 ± 0.2 | -1.09 ± 0.15
3 | UUUAAGCAAUAUUACGUGCG | -0.659 ± 0.088 | -0.486 ± 0.11
4 | UUUAAGCAAUAUUACGUGCU | -3.09 ± 0.18 | -1.41 ± 0.15
5 | UUUAAGCAAUAUUACGUGUU | -3.32 ± 0.2 | -2.57 ± 0.22
6 | UUUAAGCAAUAUUACGUUGA | -2.17 ± 0.23 | -1.5 ± 0.2
7 | UUUAAGCAAUAUUACGUUGU | -3.69 ± 0.25 | -2.2 ± 0.26
8 | UUUCAGCAAUAUUACGAAAU |  | -2.26 ± 0.4
9 | UUUCAGCAAUAUUACGACGG | -1.02 ± 0.11 | 0.205 ± 0.17
10 | UUUCAGCAAUAUUACGAGAA | -1.92 ± 0.37 | -1.49 ± 0.24
11 | UUUCAGCAAUAUUACGAGAC | -2.68 ± 0.36 | -3.57 ± 0.46
12 | UUUCAGCAAUAUUACGAGAG | -1.8 ± 0.069 | -1.91 ± 0.088
13 | UUUCAGCAAUAUUACGAGCU |  | -1.95 ± 0.5
14 | UUUCAGCAAUAUUACGAUGA | -0.807 ± 0.081 | -0.285 ± 0.075
15 | UUUCAGCAAUAUUACGCAUC | -2.79 ± 0.14 | -0.623 ± 0.11
16 | UUUCAGCAAUAUUACGCCUC |  | -1.38 ± 0.41
17 | UUUCAGCAAUAUUACGCGAA | -2.03 ± 0.14 | -1.21 ± 0.14
18 | UUUCAGCAAUAUUACGCUAG | -0.789 ± 0.084 | -0.5 ± 0.1
19 | UUUCAGCAAUAUUACGCUCG | 0.0268 ± 0.097 | 0.385 ± 0.15
20 | UUUCAGCAAUAUUACGCUUA | -0.378 ± 0.086 | 0.0227 ± 0.12
21 | UUUCAGCAAUAUUACGGACA | -0.569 ± 0.09 | -0.204 ± 0.1
22 | UUUCAGCAAUAUUACGGAUA | -0.515 ± 0.11 | -0.565 ± 0.11
23 | UUUCAGCAAUAUUACGGAUU | -1.63 ± 0.083 | -0.55 ± 0.097

Row | Sequence | self-splicing fitness (ln) (30 °C) | self-splicing fitness (ln) (37 °C)
24 | UUUCAGCAAUAUUACGGCAC | -1.79 ± 0.19 | -2.33 ± 0.24
25 | UUUCAGCAAUAUUACGGCGA | -0.344 ± 0.093 | 0.167 ± 0.13
26 | UUUCAGCAAUAUUACGGCUC | -1.77 ± 0.42 | 0.0864 ± 0.23
27 | UUUCAGCAAUAUUACGGUCU | -1.45 ± 0.086 | -0.667 ± 0.087
28 | UUUCAGCAAUAUUACGUCUU | -2.52 ± 0.17 | -1.36 ± 0.13
29 | UUUCAGCAAUAUUACGUGAC | -2.99 ± 0.22 | -1.73 ± 0.48
30 | UUUCAGCAAUAUUACGUUCG | -1.09 ± 0.085 | -0.545 ± 0.13
31 | UUUGAGCAAUAUUACGAAAG |  | -2.49 ± 0.23
32 | UUUGAGCAAUAUUACGAAGG | -3.13 ± 0.34 | -1.66 ± 0.31
33 | UUUGAGCAAUAUUACGACAG | -2.8 ± 0.15 | -1.81 ± 0.18
34 | UUUGAGCAAUAUUACGAGAU | -3.65 ± 0.42 | -3.12 ± 0.37
35 | UUUGAGCAAUAUUACGAUCG | -2.23 ± 0.23 | -1.81 ± 0.29
36 | UUUGAGCAAUAUUACGCACG |  | -1.45 ± 0.42
37 | UUUGAGCAAUAUUACGCAUA |  | -1.01 ± 0.29
38 | UUUGAGCAAUAUUACGCGAA | -2.96 ± 0.34 | -1.71 ± 0.2
39 | UUUGAGCAAUAUUACGGAUU | -3.69 ± 0.25 | -2.31 ± 0.2
40 | UUUGAGCAAUAUUACGGUGU |  | -2.7 ± 0.41
41 | UUUGAGCAAUAUUACGUACU | -3.28 ± 0.43 | 
42 | UUUGAGCAAUAUUACGUAUA | -2.78 ± 0.3 | -2.67 ± 0.36
43 | UUUGAGCAAUAUUACGUCCA |  | -0.659 ± 0.37
44 | UUUGAGCAAUAUUACGUCCU | -3.03 ± 0.27 | -1.77 ± 0.2
45 | UUUGAGCAAUAUUACGUCGA | -2.46 ± 0.2 | -0.692 ± 0.24
46 | UUUGAGCAAUAUUACGUUCA |  | -2.38 ± 0.36

Row | Sequence | self-splicing fitness (ln) (30 °C) | self-splicing fitness (ln) (37 °C)
47 | UUUUAGCAAUAUUACGAAUA | -1.26 ± 0.25 | -1.04 ± 0.16
48 | UUUUAGCAAUAUUACGAAUU | -3.26 ± 0.38 | -1.23 ± 0.29
49 | UUUUAGCAAUAUUACGAGGA | -1.04 ± 0.17 | -1.3 ± 0.21
50 | UUUUAGCAAUAUUACGAGUA | -1.55 ± 0.27 | -0.821 ± 0.29
51 | UUUUAGCAAUAUUACGAUAC | -3.18 ± 0.45 | 
52 | UUUUAGCAAUAUUACGCACG | -0.889 ± 0.13 | -0.745 ± 0.17
53 | UUUUAGCAAUAUUACGCGCA | -0.13 ± 0.11 | -0.0853 ± 0.12
54 | UUUUAGCAAUAUUACGCGGC |  | -2.34 ± 0.39
55 | UUUUAGCAAUAUUACGCGUC |  | -1.23 ± 0.25
56 | UUUUAGCAAUAUUACGGACA | -1.41 ± 0.18 | -0.668 ± 0.17
57 | UUUUAGCAAUAUUACGGACG | -0.75 ± 0.2 | -0.45 ± 0.2
58 | UUUUAGCAAUAUUACGGCGG | -0.446 ± 0.16 | -0.137 ± 0.15
59 | UUUUAGCAAUAUUACGGUAG | -1.6 ± 0.18 | -1.74 ± 0.16
60 | UUUUAGCAAUAUUACGGUCA | -1.25 ± 0.17 | -0.069 ± 0.13
61 | UUUUAGCAAUAUUACGGUGC | -3.63 ± 0.24 | -2.98 ± 0.38
62 | UUUUAGCAAUAUUACGGUUA | -1.54 ± 0.2 | 0.105 ± 0.13
63 | UUUUAGCAAUAUUACGUAAA | -1.52 ± 0.17 | -0.431 ± 0.23
64 | UUUUAGCAAUAUUACGUAGG | -1.99 ± 0.11 | -0.229 ± 0.13
65 | UUUUAGCAAUAUUACGUCAG | -3.93 ± 0.47 | -0.297 ± 0.27
66 | UUUUAGCAAUAUUACGUCGG | -1.95 ± 0.15 | -0.321 ± 0.17
67 | UUUUAGCAAUAUUACGUGGA | -2.5 ± 0.18 | -0.992 ± 0.11
68 | UUUUAGCAAUAUUACGUUAA | -2.45 ± 0.37 | -2.52 ± 0.48
